Experiment [1] addresses Dimethylformamidase (DMFase) large subunit expressed and purified without the small subunit (Paracoccus sp. strain DMF). In words: SEC. Background: In gel filtration, larger molecules generally elute earlier.
Experiment [2] addresses Dimethylformamidase (DMFase) α2β2 complex, recombinant wild type (Paracoccus sp. strain DMF). As to the kind of experiment: cryo-EM structure.

With “Dimethylformamidase (DMFase) large subunit expressed and purified without the small subunit (natural protein)”, the stoichiometry N in experiment [1] worked out at 2.

In the case of “Dimethylformamidase (DMFase) α2β2 complex, recombinant wild type”, the stoichiometry N in experiment [2] is 2.

Usually stoichiometry N stands for the number of molecules, sites or subunits per partner or assembly.

Values taken from doi:10.1101/2019.12.17.879908.
